Experimental findings from US20240317847A1 (Bayer, published 2024) are described below.

Assay [1] concerns the target T1, murine IL-11 (mouse, UniProt P47873 22-199).
T1 construct: Invigate recombinant protein; biotinylated when immobilized in the Di-complex ELISA; also called mIL11; mIL-11
T1 sequence: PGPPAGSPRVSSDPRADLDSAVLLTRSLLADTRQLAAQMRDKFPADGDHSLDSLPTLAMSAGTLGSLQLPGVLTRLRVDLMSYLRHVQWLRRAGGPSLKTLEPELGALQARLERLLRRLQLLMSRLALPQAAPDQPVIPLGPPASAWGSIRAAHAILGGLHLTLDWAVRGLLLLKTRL
In words: Di-complex ELISA, murine IL11RA-Fc binding to immobilized mIL-11, competition. How it is done:
In the Di-complex ELISA format anti IL-11 antibodies are tested for the ability to interfere with the formation of complexes consisting of immobilized murine IL-11 (Invigate, e.g., lot #C210819-09) or human IL-11 (Invigate, e.g., lot #C121021-19), and murine IL11RA-Fc fusion proteins or canine IL11RA-human-Fc fusion protein (FIG. 17a, b).
Bispecific antibodies were subjected to the experimental assay procedure described in Example 18 and IC50 [M], respectively efficacy (%) were calculated accordingly.
For orientation: An ELISA detects its analyte on a solid surface through an enzyme-linked reagent.

The target in assay [2] is T2, human IL-11 (human, UniProt P20809 22-199).
T2 sequence: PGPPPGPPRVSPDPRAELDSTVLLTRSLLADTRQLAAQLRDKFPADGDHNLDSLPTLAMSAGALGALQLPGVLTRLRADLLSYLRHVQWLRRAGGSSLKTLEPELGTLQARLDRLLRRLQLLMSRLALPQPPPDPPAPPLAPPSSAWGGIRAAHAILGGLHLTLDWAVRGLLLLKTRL
In words: cell-based or functional assay.

The target in assay [3] is T3, murine IL-11 (mouse, UniProt P47873 22-199).
T3 sequence: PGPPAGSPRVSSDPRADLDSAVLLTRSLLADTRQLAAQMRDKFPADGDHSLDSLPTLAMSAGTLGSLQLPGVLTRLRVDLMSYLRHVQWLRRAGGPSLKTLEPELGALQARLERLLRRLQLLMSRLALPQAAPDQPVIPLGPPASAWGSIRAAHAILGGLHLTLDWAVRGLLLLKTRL
In words: cell-based or functional assay.

Assay [4] concerns the target T4, cynomolgus IL-11 (cynomolgus, UniProt P20808 22-199).
T4 sequence: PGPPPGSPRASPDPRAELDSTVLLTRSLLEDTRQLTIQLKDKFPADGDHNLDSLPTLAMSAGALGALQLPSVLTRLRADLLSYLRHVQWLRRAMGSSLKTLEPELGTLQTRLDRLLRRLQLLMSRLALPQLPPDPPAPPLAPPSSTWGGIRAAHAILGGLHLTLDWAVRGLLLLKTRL
Kind of assay: cell-based or functional assay.

Assay [5] addresses T5, rat IL-11 (rat, UniProt Q99MF5 22-199).
T5 sequence: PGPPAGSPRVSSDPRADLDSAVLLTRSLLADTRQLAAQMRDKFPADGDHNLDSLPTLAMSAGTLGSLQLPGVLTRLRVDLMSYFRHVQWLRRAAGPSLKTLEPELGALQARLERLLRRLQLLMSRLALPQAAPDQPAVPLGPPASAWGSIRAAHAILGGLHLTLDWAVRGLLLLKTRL
Kind of assay: cell-based or functional assay.

The target in assay [6] is T1, murine IL-11. Kind of assay: SPR (Biacore), 25 C, antibody captured via anti-Fc, IL-11 as analyte, determined in steady state.
In assay [7] the target is T6, human IL-11 (human, UniProt P20809 22-199).
T6 construct: Invigate recombinant protein; biotinylated when immobilized in the Di-complex ELISA; also called hIL11; hIL-11
T6 sequence: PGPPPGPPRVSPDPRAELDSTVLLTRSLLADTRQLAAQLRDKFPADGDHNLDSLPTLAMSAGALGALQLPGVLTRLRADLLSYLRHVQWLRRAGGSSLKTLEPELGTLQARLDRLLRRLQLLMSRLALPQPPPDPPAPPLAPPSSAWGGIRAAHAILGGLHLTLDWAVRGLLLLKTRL
In words: SPR (Biacore), 25 C, antibody captured via anti-Fc, IL-11 as analyte, determined in steady state; SPR at 25 C, determined in steady state. How it is done:
(§1) To assess the binding kinetics and affinity of anti-IL-11 bispecific antibodies as well as their species cross-reactivity profile, binding assays were conducted using surface plasmon resonance (SPR). […] Antibodies were captured either via anti-human Fc IgGs (“Human antibody capture kit”, Order No. BR100839, Cytiva) or via anti-mouse Fc IgGs (“Mouse antibody capture kit, Order No. BR100383, Cytiva) covalently amine coupled to a Series S CM5 sensor chip (Cytiva) depending on the isotype. The amine coupling was carried out according to the manufacturer's instructions using 1-ethyl-3-(3-dimethylaminopropyl) carbodiimide hydrochloride (EDC), N-hydroxysuccinimide (NHS) and ethanolamine HCl, pH 8.5 (“Amine Coupling Kit” BR-1000-50, Cytiva.). Human, mouse, cynomolgus or rat IL-11 was used as analyte at several dilutions within the concentration range from 0.05-200 nM. For binding assays with only one concentration 200 nM IL-11 was used. The sensor surface was regenerated with glycine pH 1.7 after each antigen injection. Obtained sensorgrams were double referenced (subtraction of reference flow cell signal and buffer injection) and were fitted to a 1:1 Langmuir binding model to derive kinetic data using the Biacore T200 Evaluation software or the Biacore Insight software.
(§2) If no value is reported, there was either no binding or very low binding and multiphasic binding behavior.

Assay [8] deals with T7, cynomolgus IL-11 (cynomolgus, UniProt P20808 22-199).
T7 construct: Invigate recombinant protein; also called cIL11; Macaca IL-11
T7 sequence: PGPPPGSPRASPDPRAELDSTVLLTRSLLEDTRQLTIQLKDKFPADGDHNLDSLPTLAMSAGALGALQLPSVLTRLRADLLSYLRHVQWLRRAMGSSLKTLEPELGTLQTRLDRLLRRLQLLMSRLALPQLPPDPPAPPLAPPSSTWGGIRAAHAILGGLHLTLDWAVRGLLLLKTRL
The assay is described as above. How it is done: as §1, §2

Assay [9] concerns the target T8, rat IL-11 (rat, UniProt Q99MF5 22-199).
T8 construct: Invigate recombinant protein; also called rIL11
T8 sequence: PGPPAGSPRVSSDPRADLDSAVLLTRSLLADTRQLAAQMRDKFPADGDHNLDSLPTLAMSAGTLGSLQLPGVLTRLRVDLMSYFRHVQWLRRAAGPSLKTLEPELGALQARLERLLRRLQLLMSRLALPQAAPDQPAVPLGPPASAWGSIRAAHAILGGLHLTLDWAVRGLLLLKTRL
The description is as above. How it is done:
as §1, §2

B1: TPP-29697 (bispecific antibody, IgG1)
chain 1: QVQLVESGGGVVQPGRSLRLSCAASGFTFSHYDMHWVRQAPGKGLEWVAVISYHGSVKFYADSVKGRFTISRDNSKNTLYLQMNSLRAEDTAVYYCARTPGFHFDYWGQGTLVTVSSGGGGSGGGGSGGGGSQSVLTQPPSASGTPGQRVTISCSGSSSNIGSNYVSWYQQLPGTAPKLLIYYDDLRPSGVPDRFSGSKSGTSASLAISGLRSEDEADYYCSAWDDSLSGVVFGGGTKLTVLGGGGSGGGGSGGGGSGVECPPCPAPPVAGPSVFLFPPKPKDTLMISRTPEVTCVVVGVSHEDPEVKFNWYVDGVEVHNAKTKPREEQYNSTYRVVSVLTVLHQDWLNGKEYKCKVSNKQLPSPIEKTISKAKGQPREPQVYTLPPCRDELTKNQVSLWCLVKGFYPSDIAVEWESNGQPENNYKTTPPVLDSDGSFFLYSKLTVDKSRWQQGNVFSCSVMHEALHNHYTQKSLSLSPGK
chain 2: EVQLLESGGGLVQPGGSLRLSCAASGFTFSSYGMHWVRQAPGKGLEWVAVISYDGSYKYYADSVKGRFTISRDNSKNTLYLQMNSLRAEDTAVYYCAAGVPDYWGQGTLVTVSSGGGGSGGGGSGGGGSQSVLTQPPSASGTPGQRVTISCSGSSSNIGSDYDVHWYQQLPGTAPKLLIYSNEERPSGVPDRFSGSKSGTSASLAISGLRSEDEADYYCSAWDSSLSGPVFGGGTKLTVLGGGGSGGGGSGGGGSGVECPPCPAPPVAGPSVFLFPPKPKDTLMISRTPEVTCVVVGVSHEDPEVKFNWYVDGVEVHNAKTKPREEQYNSTYRVVSVLTVLHQDWLNGKEYKCKVSNKQLPSPIEKTISKAKGQPREPQVCTLPPSRDELTKNQVSLSCAVKGFYPSDIAVEWESNGQPENNYKTTPPVLDSDGSFFLVSKLTVDKSRWQQGNVFSCSVMHEALHNHYTQKSLSLSPGK
notes: scFv-kih-hIgG1 with Fc-silencing mutations; bispecific comprising CDRs of TPP-29528 and TPP-29519
For orientation: IC50 means the concentration that inhibits the measured activity by half. Low readings indicate inhibition by little substance, high ones a need for much substance. As for B1, the IC50 in assay [1] was 1.4 nM.

B2: TPP-18068 (antibody, mouse IgG1)
heavy: EVQLLESGGGLVQPGGSLRLSCAASGFTFSSYGMHWVRQAPGKGLEWVSVISYDGSYKYYADSVKGRFTISRDNSKNTLYLQMNSLRAEDTAVYYCAAGVPDYWGQGTLVTVSSAKTTPPSVYPLAPGSAAQTNSMVTLGCLVKGYFPEPVTVTWNSGSLSSGVHTFPAVLQSDLYTLSSSVTVPSSTWPSETVTCNVAHPASSTKVDKKIVPRDCGCKPCICTVPEVSSVFIFPPKPKDVLTITLTPKVTCVVVDISKDDPEVQFSWFVDDVEVHTAQTQPREEQFNSTFRSVSELPIMHQDWLNGKEFKCRVNSAAFPAPIEKTISKTKGRPKAPQVYTIPPPKEQMAKDKVSLTCMITDFFPEDITVEWQWNGQPAENYKNTQPIMDTDGSYFVYSKLNVQKSNWEAGNTFTCSVLHEGLHNHHTEKSLSHSPGK
light: QSVLTQPPSASGTPGQRVTISCTGSSSNIGAGYDVHWYQQLPGTAPKLLIYSNNERPSGVPDRFSGSKSGTSASLAISGLRSEDEADYYCAAWDDSLNGPVFGGGTKLTVLGQPKSSPSVTLFPPSSEELETNKATLVCTITDFYPGVVTVDWKVDGTPVTQGMETTQPSKQSNNKYMASSYLTLTARAWERHSSYSCQVTHEGHTVEKSLSRADCS
notes: mIgG1, Lambda
Turning to B2, the “RGA Efficacy (%)” value in [2] was found to be 46.1%; in assay [3], 93.6%; in assay [4] it was 70%; in assay [5] it was 94%. In addition, the “RGA IC50” value in assay [2] was found to be 6.5 nM; in assay [3], 1.2 nM; in [4], 4.1 nM; in assay [5], 1.8 nM.

B3: TPP-18087 (antibody, mouse IgG1, V domains shown)
VH: EVQLLESGGGLVQPGGSLRLSCAASGFTFSHYDMNWLRQAPGKGLEWVGVISYDGSNKFYADFVKGRFTISRDNSKNTLYLQMNSLRAEDTAVYYCARTPGSHFDYWGQGTLVTVSS
VL: QSVLTQPPSASGTPGQRVTISCSGSSSNIGNNAVNWYQQLPGTAPKLLIYYDDLLPSGVPDRFSGSKSGTSASLAISGLRSEDEADYYCSAWDDSLNGVVFGGGTKLTVLG
notes: mIgG1, Lambda
The Kd is the constant that tells how readily two partners part at equilibrium. With B3, the Kd was 33 nM in [6], 13 nM in [7], 56 nM in assay [8] and 34 nM in assay [9].
